Results from the nanobody polyreactivity screen of Harvey et al. (2022).

Experiment: yeast display, Sf9 membrane polyspecificity reagent, FACS + sequencing; frameworks hold sequencing errors
In short: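 Polyreactivity labels are assigned by the sorting gate from which each nanobody was recovered. The gates were low and high (top ~1%), set on anti-HA fluorescence for expression and streptavidin fluorescence for reagent binding. Before sorting, galactose-induced (36–48 hours) yeast display cells were stained for 1 hour at 4 °C with 10% biotinylated, detergent-solubilized Sf9 membrane reagent.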
In the case of “QVQLVEAGGGLVQAGGSLRLSCAASGRIFVPYAMGWYRQAPGKEWELVAGISWSGGSTYYADSVKGRFTISRDNAKNTVYLQMNNLKPEDTPVYYCAAAKRRRPFDYWGQGTQVTVSS”, the “polyreactivity (PSR sort gate)” value is reported as “high polyreactivity”. For “QVQLVEAGGGLVQAGGSLRLSCAASGRIFYQNTMGWYIQAPGKERELVAAISKSGGRTYYADSVKGRFTISRDNAKNTVYLQMNSLKPEDTAVYYCDQGYASEMDYWGQVTQVTVSS”, the “polyreactivity (PSR sort gate)” value was “high polyreactivity”. For “QVQLVEAGGGLVQAGGSLRLSCAASGSTFPYNARGWYSQAPGKDRELVAAMTSAGGTNYADSVKGRFTISRDNATNTVYLQMNSLKPEDTAVYYCAADGSGYYDWYYYWGQGTQVTVSS”, the “polyreactivity (PSR sort gate)” value was “low polyreactivity”. For “QVQLVEAGGGLVQAGGSLRLSCAASGSTFVKNAMGWYRQAPGKERELVAAISYRGGRTYYADSVKRRFTISRDNAKNTVYLQMNSLKPEDTAVYYCAADASHLTGYEYWGQGTQGTVSS”, the “polyreactivity (PSR sort gate)” value was “high polyreactivity”. In the case of “QVQLVEAGGGLVQAGGSLRLSCAAYGRTFYTYAMGWYRQAPGKEREFVAAITWSGGSTYYADSVKGRFTISRDNAKNTVYLQMNSLKPEDPAVYYCAAGSRFRYSPGQSYEYGYWGQGTQVTVSS”, the “polyreactivity (PSR sort gate)” value is reported as “low polyreactivity”. In the case of “QVQLVEAGVCLVQSGGRLRLSCAATGFTFTSKVIGWSRQAPGKERELVADISASDGRTYYADSVKGRFRISRENAKNTVYLQMNRLKTEDTAVYYCAASLWVYVGQARYHWYDYWGQGTQVTVSS”, the “polyreactivity (PSR sort gate)” value is reported as “low polyreactivity”. With “QVQLVEEGGGLVQAGGTRRLSCAASGSTFTVYVMGWYRQAPGQERELVAAINLSGGRTYYADSVKGRFTISRDNAKNTVYLQMNSLKPEDTAVYYCAADGSTWGDYRTYGYWGQGTLVTVSS” the “polyreactivity (PSR sort gate)” value was “low polyreactivity”. In the case of “QVQLVESAAGLVQAGASHRLSCAASARTFTVNAMGWYRQAPGKERELVAAISGRSGRTSYADSVKGRFTISRDNAKNTVYLQMNSLKQEVTAVYYCAADYYFYFTYPARFGYWGLGTQVTVSS”, the “polyreactivity (PSR sort gate)” value is reported as “high polyreactivity”. For “QVQLVESAAGLVQAGASLRLSCAPSGSIFSGNALGWSRQAPGKARELVAAISQNGGRTYYADSVKGRFTISRDYAKNTVYLQMNILKPDDTAVYYCAALAVRFYSSYDYWGQGTQVTVSS”, the “polyreactivity (PSR sort gate)” value was “high polyreactivity”. In the case of “QVQLVESAAGLVQAGGSLRLSCAPSGSTFPRYAMGWYRQAPGKERELVAAITKNGGYTYYADSVKGRFTISRDNAKNTVYLQMNSLKPEDTAVYYCAAERWYSCYRVGVSYDYWGQGTQVTVSS”, the “polyreactivity (PSR sort gate)” value is reported as “high polyreactivity”. For “QVQLVESAAGLVQAGGSLSLSCAASGFIFWRYAMGWYRQAPGKERELVAAISVSGTRTYYADSVKGRFTISRDNAKNTVYLQMNSLKPEDTAVYYCNAASRSFSSDRAFDYWGQGTQVTVSS”, the “polyreactivity (PSR sort gate)” value was “high polyreactivity”. With “QVQLVESAGDLVQAGRTLRFSCAPSGSIFKPNAMGWYRQAPGKERELVDDISRSGTSTYYADSVKGRFTISRDIAKNTVYLQMNSLKPEDTAVFNCATRYSGDYGYWGQGTQVTVSS” the “polyreactivity (PSR sort gate)” value was “high polyreactivity”. For “QVQLVESAGGIVQAGGSLRLSFAASGSTFTRYAMGWYRPAPGKERELVAAIDGGGGSTSYADSVKGRFTISRDHAKNTVYLQMNSLKPEDTAVYYCAAPLDTSSRIFDYWGHGTQVTVSS”, the “polyreactivity (PSR sort gate)” value was “low polyreactivity”. With “QVQLVESAGGLVHAGGSLRLSCAASGNIFRWYAMGWYRQAPGKDRELVAAISSGGRTNYADSVKGRFTISRDNALNSVFLQMNSLKPEDTAVFYWYIVAGVTGRFYFWGQGTQVTVSS” the “polyreactivity (PSR sort gate)” value was “low polyreactivity”. For “QVQLVESAGGLVQAGASLRLSCAASGFIFRYNTKGWYRQAPGKEMELVATINRSGGSTYYADSVKGRFTISRDNAKNTVYLQMNSLKPVDTAVYYCAAVSLQPYYNAGATWDGDYWGQGTQVTVSS”, the “polyreactivity (PSR sort gate)” value was “high polyreactivity”. In the case of “QVQLVESAGGLVQAGASLRLSCAASGLIYRKYSMGWYRQAPGKERELVAAISSGGDTNYADSVKGLFTISRDNAKNTVYLQMNSLKPEDTAVYYCNADRKYWYGIALEYWGQGTQVTVSS”, the “polyreactivity (PSR sort gate)” value is reported as “high polyreactivity”. With “QVQLVESAGGLVQAGGILRLSCAASGFTFYFYAMGWYRQSPGKERELVAAISRSGSRTYYADSVKGRFTISRDNAKNTVYLQMNSLKPEDTAVYYCARVRPRGLYFVLHYDYWGQGTQVTVSS” the “polyreactivity (PSR sort gate)” value was “high polyreactivity”. With “QVQLVESAGGLVQAGGRLLLSCAASGRIFAKYAMGWYRQAPGKERELVAAIRSTGGGTYYADSVKGRFTISRDNAKNTVYLQMNSLKPEDTAVYYCDARQTYYKYGYWGQGTQVTVSS” the “polyreactivity (PSR sort gate)” value was “high polyreactivity”. For “QVQLVESAGGLVQAGGSLRLICAASVFTFYYYTMGWYRPAPGKERELVAGISGTGGSTYYADSVKGRFTISRDNAKNTVYLQMNSLKPEDTAVYYCAAGPWYWGQGTQVTVSS”, the “polyreactivity (PSR sort gate)” value was “low polyreactivity”. In the case of “QVQLVESAGGLVQAGGSLRLRCAASGRIFTHNAMGWYRQAPGKERELVAAITSGGRTTYADSVKGRFTISRDNAKNTVYLQMNSLKPEDSAVYYCNADTGLGSLDFDKRDYWGQGTQVTVSS”, the “polyreactivity (PSR sort gate)” value is reported as “low polyreactivity”. For “QVQLVESAGGLVQAGGSLRLSCAASGAIFGGYAMGWYRQAPGKERELVAAISSSGGSTYFADSVKGRFTISRDNEKNTVYLQMNSLKPEDTAVYYCAAKYQRRYYYWGQGTQVTVSS”, the “polyreactivity (PSR sort gate)” value was “high polyreactivity”. With “QVQLVESAGGLVQAGGSLRLSCAASGFIFFGNAMGWYRQAPGKERALVAVITWSGGSTYADSVKGRFTISRDNAKNPVYLQMNSLKPEDTAVYYSAADQQTWWQYSLINEYDYWGQGTQVTVTS” the “polyreactivity (PSR sort gate)” value was “low polyreactivity”. In the case of “QVQLVESAGGLVQAGGSLRLSCAASGFIFPRYAMGWYRPAPGKERELVAAISSSGGSTYYADSVKGRFTISRDNAKNTVYLQMNSLKPEDTAVYYCAARYQSDYWRYYYWGQGTQVTVSS”, the “polyreactivity (PSR sort gate)” value is reported as “high polyreactivity”. In the case of “QVQLVESAGGLVQAGGSLRLSCAASGGIFSRYSMGWYRQAPGKERELVAAITRSGGSTYYADSVKGRFTISRDNAKNTVYLQLNSLKPEDTAVYYCSARRRGGSKYGYWGQGTQVTVSS”, the “polyreactivity (PSR sort gate)” value is reported as “high polyreactivity”. With “QVQLVESAGGLVQAGGSLRLSCAASGICAVYARGWYRQAPGKERELVAAITLSGGSTSYADSVKGRFTISRDNAKNTVYLQMNSLNPAATEVYYCAVLIRYPYYYWGQGTQVTVSS” the “polyreactivity (PSR sort gate)” value was “low polyreactivity”. For “QVQLVESAGGLVQAGGSLRLSCAASGIIFSYYVMGWYRQAPGKERELVAAITTSGSRTYYADSVKGRFTISRDNAKITVYLQMNSLKPEVTSVYYCAAADAGLSVSSYRTYYYWGQGTQVTVSS”, the “polyreactivity (PSR sort gate)” value was “high polyreactivity”. With “QVQLVESAGGLVQAGGSLRLSCAASGLIFARNSMGWYRQAPGKERELVAAISKRGGSTFYADSVKGRFTISRDNAKNTVYLQMNSLKPVDTAVYYWNARSSETWHGDYWGQGTQVTVSS” the “polyreactivity (PSR sort gate)” value was “high polyreactivity”. With “QVQLVESAGGLVQAGGSLRLSCAASGLTFYLYVMGWSRQATGKERELVAAISRRGGTTYYADSVKGRFTISRDNAKNTVYLQMNSLKPEDTAVYYCNKADAVGRDYDYWGQGTQVTVSS” the “polyreactivity (PSR sort gate)” value was “high polyreactivity”. In the case of “QVQLVESAGGLVQAGGSLRLSCAASGLTFYRYAMGWYRQAPGKERELVAAISSADRTYYADSVKGRFTISRDNAKNTVYLQMNSLKPEDTAVYYCNARGIGRSTKWSSRDYWGQGTQVTVSS”, the “polyreactivity (PSR sort gate)” value is reported as “high polyreactivity”. In the case of “QVQLVESAGGLVQAGGSLRLSCAASGRIFRANAMGWYRQAPGKERELVATIRNSGGITYYADSVKGRFTISRDHAKNTVYLQMNSLIPEDTAVYYCAKLGRYGYDYWGQGTQVTVSS”, the “polyreactivity (PSR sort gate)” value is reported as “high polyreactivity”.
